The results in this text go back to patent US5817490A, “Enzymatic process for the manufacture of ascorbic acid 2-keto-L-gulonic acid and esters of 2-keto-L-gulonic acid” (Eastman Chemical Company, priority 1997, dated 1998).

The data set in a line: enzyme screen for hydrolysis/methanolysis of butyl-KLG (HPLC of products and remaining substrate). The class given is biochemical. Further details: KLG formed / MeKLG formed / ASA formed / BuKLG (remaining substrate): unit: ppm. The method, then: Initial enzyme screens were carried out as follows. Enzyme (typically 10 mg), aqueous buffer (typically 860 microliters (ul) or 550 ul), aqueous 0.2M CaCl2 (10 ul), methanol (typically 90 ul or 400 ul), and an aqueous solution of substrate (typically 90 ul of butyl-KLG at a typical concentration of 110,000 ppm) were added to a 2 ml polypropylene centrifuge tube. The resulting solution was vortexed briefly and placed on a shaker bath at 300 rpm at 38° C. (typically for 18 hours or more). After incubation, samples were centrifuged at 14,000 G's (14,000 times gravity) for 20 minutes to remove enzyme, sampled (300 ul), and diluted to one milliliter with distilled water. If not analyzed by HPLC within the day, samples were frozen prior to analysis.
The data were reported in terms of parts per million of KLG, MeKLG, ascorbic acid (ASA) and butyl-KLG. […] Samples labeled as "no enzyme" were controls within a given run. The controls contained substrate but no enzyme and thus represented experimental and HPLC background data.

[1] abbreviates: Table 3: 38° C., 16 Hours, 38% Methanol-Water, 0.1M MES Buffer.
Where [2] appears, read: Table 4: 38° C., 47.5 Hours, 38% Methanol-Water, 0.1M MES Buffer.
Setting [3] is: Table 8: 38° C., 21 Hours, 8.6% Methanol-Water, 0.2 M MES.
The mark [4] stands for this setting: Table 7: 38° C., 19 Hours, 8.6% Methanol-Water, 0.1M MES.

B1: Humicola lanuginosa Lipase: Humicola lanuginosa Lipase (protein, UniProt O59952 23-291, looked up)
Lipase: EVSQDLFNQFNLFAQYSAAAYCGKNNDAPAGTNITCTGNACPEVEKADATFLYSFEDSGVGDVTGFLALDNTNKLIVLSFRGSRSIENWIGNLNFDLKEINDICSGCRGHDGFTSSWRSVADTLRQKVEDAVREHPDYRVVFTGHSLGGALATVAGADLRGNGYDIDVFSYGAPRVGNRAFAEFLTVQTGGTLYRITHTNDIVPRLPPREFGYSHSSPEYWIKSGTLVPVTRNDIVKIEGIDATGGNNQPNIPDIPAHLWYFGLIGTCL
In the case of B1, under setting [1], the ASA formed was 6 ppm, the “BuKLG (remaining substrate)” value stood at 10191 ppm, the KLG formed is 63 ppm and the MeKLG formed was 90 ppm. For the same molecule, under setting [2], the ASA formed came to 42 ppm, the “BuKLG (remaining substrate)” value worked out at 8017 ppm, the KLG formed came out at 129 ppm and the MeKLG formed is reported as 241 ppm. In addition, under setting [3], the ASA formed is 10 ppm, the “BuKLG (remaining substrate)” value came to 7215 ppm, the KLG formed came out at 176 ppm and the MeKLG formed is 129 ppm.

B2: Rhizoipus Delmar Lipase: Rhizoipus Delmar Lipase (protein, UniProt P61872 96-392, looked up)
Lipase: DDNLVGGMTLDLPSDAPPISLSSSTNSASDGGKVVAATTAQIQEFTKYAGIAATAYCRSVVPGNKWDCVQCQKWVPDGKIITTFTSLLSDTNGYVLRSDKQKTIYLVFRGTNSFRSAITDIVFNFSDYKPVKGAKVHAGFLSSYEQVVNDYFPVVQEQLTAHPTYKVIVTGHSLGGAQALLAGMDLYQREPRLSPKNLSIFTVGGPRVGNPTFAYYVESTGIPFQRTVHKRDIVPHVPPQSFGFLHPGVESWIKSGTSNVQICTSEIETKDCSNSIVPFTSILDHLSYFDINEGSCL
B2: under setting [1], the ASA formed amounted to 1 ppm, the “BuKLG (remaining substrate)” value amounted to 7392 ppm, the KLG formed is reported as 51 ppm and the MeKLG formed amounted to 99 ppm. Besides, under setting [3], the ASA formed came to 0 ppm, the “BuKLG (remaining substrate)” value is reported as 7097 ppm, the KLG formed was 178 ppm and the MeKLG formed is listed as 0 ppm.

B3: Rhizopus Niveus Lipase: Rhizopus Niveus Lipase (protein, UniProt P61871 96-392, looked up)
Lipase: DDNLVGGMTLDLPSDAPPISLSSSTNSASDGGKVVAATTAQIQEFTKYAGIAATAYCRSVVPGNKWDCVQCQKWVPDGKIITTFTSLLSDTNGYVLRSDKQKTIYLVFRGTNSFRSAITDIVFNFSDYKPVKGAKVHAGFLSSYEQVVNDYFPVVQEQLTAHPTYKVIVTGHSLGGAQALLAGMDLYQREPRLSPKNLSIFTVGGPRVGNPTFAYYVESTGIPFQRTVHKRDIVPHVPPQSFGFLHPGVESWIKSGTSNVQICTSEIETKDCSNSIVPFTSILDHLSYFDINEGSCL
With B3, under setting [1], the ASA formed was found to be 17 ppm, the “BuKLG (remaining substrate)” value is reported as 10453 ppm, the KLG formed is reported as 80 ppm and the MeKLG formed is reported as 252 ppm. In addition, under setting [3], the ASA formed was 61 ppm, the “BuKLG (remaining substrate)” value was determined as 7102 ppm, the KLG formed worked out at 178 ppm and the MeKLG formed is recorded as 181 ppm.

B4: Subtilisin Carlsberg: Subtilisin Carlsberg (a protease) (protein, UniProt P00780 106-379, looked up)
Subtilisin Carlsberg: AQTVPYGIPLIKADKVQAQGFKGANVKVAVLDTGIQASHPDLNVVGGASFVAGEAYNTDGNGHGTHVAGTVAALDNTTGVLGVAPSVSLYAVKVLNSSGSGSYSGIVSGIEWATTNGMDVINMSLGGASGSTAMKQAVDNAYAKGVVVVAAAGNSGSSGNTNTIGYPAKYDSVIAVGAVDSNSNRASFSSVGAELEVMAPGAGVYSTYPTNTYATLNGTSMASPHVAGAAALILSKHPNLSASQVRNRLSSTATYLGSSFYYGKGLINVEAAAQ
With B4, where the note is “Example 4: 38% methanol-water, MES, pH 5 to 5.8”, the “levels of activity / conversion of butyl-KLG” value is “particularly high levels of activity”. For the same molecule, under setting [2], the ASA formed is 0 ppm, the “BuKLG (remaining substrate)” value turned out to be 0 ppm, the KLG formed was 3072 ppm and the MeKLG formed stood at 47 ppm. For the same molecule, under setting [4], the ASA formed is on record as 0, the “BuKLG (remaining substrate)” value was found to be 4428, the KLG formed was determined as 4463 and the MeKLG formed stood at 93.

B5: Mucor meihei Lipase: Mucor meihei Lipase (protein, UniProt P19515 95-363, looked up)
Lipase: SIDGGIRAATSQEINELTYYTTLSANSYCRTVIPGATWDCIHCDATEDLKIIKTWSTLIYDTNAMVARGDSEKTIYIVFRGSSSIRNWIADLTFVPVSYPPVSGTKVHKGFLDSYGEVQNELVATVLDQFKQYPSYKVAVTGHSLGGATALLCALDLYQREEGLSSSNLFLYTQGQPRVGDPAFANYVVSTGIPYRRTVNERDIVPHLPPAAFGFLHAGEEYWITDNSPETVQVCTSDLETSDCSNSIVPFTSVLDHLSYFGINTGLCT
Consider B5, for which, under setting [2], the ASA formed came to 108 ppm, the “BuKLG (remaining substrate)” value worked out at 7041 ppm, the KLG formed is 54 ppm and the MeKLG formed was 189 ppm. Further, under setting [4], the ASA formed is 156, the “BuKLG (remaining substrate)” value was 8620, the KLG formed turned out to be 229 and the MeKLG formed was determined as 278. Besides, under setting [3], the ASA formed is 54 ppm, the “BuKLG (remaining substrate)” value came out at 7067 ppm, the KLG formed is reported as 243 ppm and the MeKLG formed came out at 283 ppm.

B6: Porcine Pancreatic Lipase: Porcine Pancreatic Lipase (protein, UniProt P00591 1-450, looked up)
Pancreatic triacylglycerol …: SEVCFPRLGCFSDDAPWAGIVQRPLKILPWSPKDVDTRFLLYTNQNQNNYQELVADPSTITNSNFRMDRKTRFIIHGFIDKGEEDWLSNICKNLFKVESVNCICVDWKGGSRTGYTQASQNIRIVGAEVAYFVEVLKSSLGYSPSNVHVIGHSLGSHAAGEAGRRTNGTIERITGLDPAEPCFQGTPELVRLDPSDAKFVDVIHTDAAPIIPNLGFGMSQTVGHLDFFPNGGKQMPGCQKNILSQIVDIDGIWEGTRDFVACNHLRSYKYYADSILNPDGFAGFPCDSYNVFTANKCFPCPSEGCPQMGHYADRFPGKTNGVSQVFYLNTGDASNFARWRYKVSVTLSGKKVTGHILVSLFGNEGNSRQYEIYKGTLQPDNTHSDEFDSDVEVGDLQKVKFIWYNNNVINPTLPRVGASKITVERNDGKVYDFCSQETVREEVLLTLNPC
As to B6, under setting [1], the ASA formed was found to be 49 ppm, the “BuKLG (remaining substrate)” value is recorded as 10709 ppm, the KLG formed was 81 ppm and the MeKLG formed is on record as 316 ppm. Besides, under setting [2], the ASA formed is recorded as 222 ppm, the “BuKLG (remaining substrate)” value was determined as 10899 ppm, the KLG formed turned out to be 229 ppm and the MeKLG formed turned out to be 613 ppm. Besides, under setting [4], the ASA formed is 314, the “BuKLG (remaining substrate)” value was 7888, the KLG formed was 333 and the MeKLG formed was determined as 291. Besides, under setting [3], the ASA formed came out at 78 ppm, the “BuKLG (remaining substrate)” value is 6860 ppm, the KLG formed was determined as 303 ppm and the MeKLG formed is 320 ppm.

B7: L-7 (Porcine pancreas): Lipase (Porcine pancreas) (protein, UniProt P00591 1-450, looked up)
Pancreatic triacylglycerol …: SEVCFPRLGCFSDDAPWAGIVQRPLKILPWSPKDVDTRFLLYTNQNQNNYQELVADPSTITNSNFRMDRKTRFIIHGFIDKGEEDWLSNICKNLFKVESVNCICVDWKGGSRTGYTQASQNIRIVGAEVAYFVEVLKSSLGYSPSNVHVIGHSLGSHAAGEAGRRTNGTIERITGLDPAEPCFQGTPELVRLDPSDAKFVDVIHTDAAPIIPNLGFGMSQTVGHLDFFPNGGKQMPGCQKNILSQIVDIDGIWEGTRDFVACNHLRSYKYYADSILNPDGFAGFPCDSYNVFTANKCFPCPSEGCPQMGHYADRFPGKTNGVSQVFYLNTGDASNFARWRYKVSVTLSGKKVTGHILVSLFGNEGNSRQYEIYKGTLQPDNTHSDEFDSDVEVGDLQKVKFIWYNNNVINPTLPRVGASKITVERNDGKVYDFCSQETVREEVLLTLNPC
B7: under setting [2], the ASA formed turned out to be 120 ppm, the “BuKLG (remaining substrate)” value was found to be 5488 ppm, the KLG formed is reported as 94 ppm and the MeKLG formed amounted to 884 ppm. Moreover, under setting [4], the ASA formed came to 106, the “BuKLG (remaining substrate)” value was 5392, the KLG formed amounted to 1007 and the MeKLG formed came to 575.
